This is an account of results in PMC8196545 (Cell reports, 2021).

Sequences and labels used below:
B1: c7809 (antibody, V domains shown)
VH: QEQRIESVRAAVEPGASLIISCPTSGFDFDRYTMHWVRQAPGKGLEWVAVTSSQGEKKYYSEAVKGRFLITRNNFKRTLYLEMSSLKPEDAGVYYCARSQGYCGTYACYGYYYYMDVWVKGPTVIVSS
VL: QSVLTQPPSVSAAPGEKVAISCSGNTTNIEKNYVAWYQHVPETAPKLLIFENHKRPFGIPDRFSGSKSATSATLGISDLQTADEADYYCQTWDTKLHIWVFGGGTKLTVL
B2: c1897 (antibody, V domains shown)
VH: EVQLVQSGAEVKKPGSSVKVSCKGSGGTLNMFALSWVRQAPGQGLEWVGGIIPSFGTTNYAQKFEGRVTITADDSADESTATVHMELSSLRRDDTAVYYCARESSGRADDSLIGYFDRQGEYYFDFWGQGTLVTVSS
VL: DIQMTQSPSTLSASIGDRVTITCRASQSISTLLAWYQQKPGKAPKLLISKASSLQSGVSARFSGSGSGTEFTLTINSLQPDDFATYSCQQYNSHPVTFGQGTKLEIK
B3: c8549 (antibody, V domains shown)
VH: QVTLKESGPTLLRPADTLTLTCNFSGFSLTTDGVALGWMRQSPGKAPEWLAFLFYDDDKQYNPHLKSRLIISKASSTNQLVLAMTNMGPADAGTYFCARLNVLVHDVPPRNYGLDVWGRGITITVSS
VL: DIVLTQSPVSLSVTPGQSASMSCKSSETLLHEDGKSYLYWYLQKPGQSPQLLIYEASKRFSGVSDRFTASGTGTHFTLQIDRVEVDDVGVYYCMENLKALTFGGGTRMEIK
B4: c2718 (antibody, V domains shown)
VH: HVQLQQWGAGLLKPSETLSLTCAVYGESFSVYDWAWIRQSPGKGLEWIGEINHDGGTNYNPSLKSRVTISIDIHLRRFSLSLISVTAADTAIYYCARHIGQLEAFDYWGQGALVTVSS
VL: QSALTQPASVSGSPGQSITISCTGITSDVGDHSYVSWYQQPPGKAPQLIIYDVVNWPPGVSHRFSGSKSGNTASLTITGLRAEDEADYYCASYRRGSSVVFGGGTKVTVL
B5: c8582 (antibody, V domains shown)
VH: QVHLVQSGAEVKKPGSSVKVSCKASGGSFSDYGISWVRQAPGQGLEWMGGIIPGFETTKFAQGLQGRLTMTADESSSTAYMVLNRLRPQDTGVYYCATTGQQNDYYSSGTSYKLNFYFGMDVWGQGTTVTVSS
VL: QSVLTQPPSSSGTPGQRVTITCSGGSSNIETNSVHWYQQLPGAAPKTVISATHQRPSGVPDRFSASKSGASASLAISGLQSEDEADYYCAVWDDSLNTWVFGGGTKLTVL
B6: c32045 (antibody, V domains shown)
VH: AVQLLESGGGLVKPGGSLRLSCAASGFTFGSYAMHWVRQAPGKGLEWVSSINISSTTYMYYSDSLKGRFTISRDNAKKTLYLQMASLRPEDTAVYYCVREATYCGSQCYSRYFDFWGSGTLVAVSS
VL: DIQMTQSPPSVSAGVGDRVTITCRASQTISGFLSWYQQKPGKAPKLLIYAASTLHSGVPSRFSGSGSGTDFTLTISSLQPEDFATYYCQQSYSAPRTFGQGTKLEIK
B7: c8595 (antibody, V domains shown)
VH: QVKLQESGPGLVKPSETLSLTCVVSGVSISQSDYFWNWLRQTPGKGLEWLGFISYSGDTFFNPSLESRLGMSVDTSSNHISLSLKSMTAADAAVYYCARTFCDDVKCYPLFDSWGHGKLVAVSS
VL: DIVMTQSPDSLPLSPGERASINCQSSQSVLYSSDNRNYLAWYQLKPGQPPKLLIYWASVRASGVPDRFSGSGSGTDFTLSISSLQAEDVAVYYCQQYYITPYSFGQGTKVEIR
B8: c8567 (antibody, V domains shown)
VH: QQQRVETVKHAVDPGSFLIISCPTSGFTFETYAMHWVRQAPGKGLEWVAATSALGEKKYYSNAVKGRFLITRNNSKRTLYLEMSGLKAEDTAVYYCARSQGYCSDFSCYGYYYYMDVWVKGPTVIVSS
VL: QSVLTQPPSVSAAPGEKVTISCSGNTTNIGNNFVAWYQHLPQNAPKLLIYEDHKRPFGIPDRFSGSKSGTSATLGISGLQTGDEADYYCQTWDAKLLIWIFGGGTKVTVL
B9: c1821 (antibody, V domains shown)
VH: QVQLIQSGAEVKKPGASVKVSCKVSGYTFPEVSMHWVREAPGRGLEWVGGYDPQSAATVYAQRFQGRVTMTEDTSVDTAYMELTSLTSEDTALYFCARSIMIRYGGVIRSFAFDVWGQGTMVIVSS
VL: SSELTQDPAVSVALGQTVTITCQGDSLRQYYATWYQRKPGQAPVLVLSGKNKRFSGIPDRFSGSTSGNSASLTIIGTQAEDEADYYCSSRGSDAYPHYVFGTGTKVTVL
B10: c3214 (antibody, V domains shown)
VH: QVQLVQSGAEVKKPGSSVKVSCKASGDNFSGYGINWVRQAPGQGLEWMGRIFPMLPVPSYAQKFQGRVTITADESTNSAYLELTSLRSEDSAVYYCARGTGEGDYFDYWGQGTQVTVSS
VL: DIQMTQSPSSVSASVGDRVTITCRASQGISRYVAWYQQKPGKAPKLLIYAASSLETGVPSRFSGSGSGTDFTLTISSLEPEDFATYYCQQANSFPLTFGGGTKVEIK
B11: c2842 (antibody, V domains shown)
VH: QVQLVQSGAEMKKPGSSVKVSCKASGGSFRSFTVNWVRQAPGQGLEWVGRIIAIFGSVDYAQKFQGRVTISADESTSTFYMDINSLKSEDTAVYYCVRDGLVGGRDFWGQGTQVTVSS
VL: EIVLTQSPGTLSLSPGERATLFCRASQSIKKNYVAWYQQNPGQAPRLLIYGASSRATGTPDRFRGSGSGTDFTLTISRLEPEDFAVYYCQQYGSAQYSFGQGTKLEIK
B12: c10814 (antibody, V domains shown)
V domain 1: EVRLDQSGTEMRKPGTRVRLSCKVSGHTTSDFFVHWVQQAPQRGPQWMGLINVEDENVIYADIFQGRISIVADTSKKTVFLDLTDLTFEETALYFCATHTLQKDTGDYVAAFDSWGQGTLLYVSS
V domain 2: QSVLTQPPSVSAVPGQKVIISCSGRTSNIGTNFVSWYQQFPGAAPKLLIYDNFNRPSGISDRFSASKSDTSATLAITALQAGDEAEYYCGAWDSGLNPAVFVFGSGTRVFVL
B13: c13173 (antibody, V domains shown)
VH: EVYLMESGGGLVQPGGSLRLSCEVSGLNRTDYWMHWIRQPPGKGLEWVSRIYSHGGGTTYADSVRGRFSLSRDSAKSTLFLEMNSLRVEDTAIYYCLFSEGDFWGPGTLVTVSS
VL: QSALTQPASLSGSPGQSITISCTGNSSDIGKSDYVSWYRQDPGKAPKLLIYDVSSRLSGISDRFSGSKSDNTASLTISGLQAEDEADYYCSSYTNWDTKVFGTGTRVTVL
B14: c12286 (antibody, V domains shown)
VH: EVHLVESGGGWIHPGMALRLSCAASGFTFEDFAMHWIRQVPGKGLEWVSSITWNGRDTAYADSVKGRFTISRDNAKNSLYLQMNSLRTEDTALYYCVKDSSVSSHYFDSWGQGIMAFVSS
VL: AIQMTQSPSTLSASVGDTVTITCRASQSVSAWLAWYQQKPGKAPKLLIYKASSLQTGVPSRFSGSGSGTEFTLTINSLQPDDFATYSCQQYNFYPWTFGPGTKVEIK
B15: c8639 (antibody, V domains shown)
VH: LLQLHESGPGLVKPSEALSLTCTVSGASATNGLYWAWIRQPPGKGLEWVASLKKWRGYYNPSLGSRVTISHAPDNQISLRLESVTAADAAVYFCVGFFSSSAFDYWGRGTLVTVSS
VL: AYVLTQPPSVSVAPGKTAKISCEGNNIGQKAVHWYQQKSGQAPVLFISDGTTRTSGIPARFSGSRSGNTATLTISWVEGGDEADYYCQVMSGDTALFGGGTKLTVL
B16: HC antibody RI5281 (IgG1) (antibody, V domains shown)
VH: QVRLAEFGGGVVRPGESLTLSCATSGFSFTSYGMHWVRQTPGKGLEWVAVIWNDGSRRYYSDSVQGRFTIAKDFANKTLSLQMRDLRVGDTAVYFCARAYGPQSEIDSWGQGILVTVSS
VL: SYGLTQPSSVSVSPGQTAIITCFGNILPRKSAYWYRQTAGRAPTLVIFGDNNRPSGIPARFSGFTAGTVATLVIAATQVDDEGDYYCYSADNSGNHRGVFGGGTKLTVL
B17: HC antibody RI10953 (IgG1) (antibody, V domains shown)
VH: EMRLEESGGALVKPGGSLRLSCVASGFKLSEWSLMWVRQAPGKGLQWVSSISLNQDYISYAGSVRGRFDVFRDRTQTSLLLNMNKLKTEDTGVYFCARVHAWRYFDWVNRRSPVEKVLSIDLWGRGTLVIVSS
VL: SGATQPPSVSVSKGETARITCSGVELSSQYVSWYRQRPGQSPVLVMFHNNSRASRIPERFSASDSGDTATLTIAGAQDVDEAEYYCQTWDSKNYVTFGGGTKLTVL
B18: HC antibody RI808 (IgG1) (antibody, V domains shown)
VH: QIQLRESGPGLVKPSETLTLTCSVSGGSIFPYFYSWIRQPAGKGLEWIGRLFSNSGSVRSNPSMHTRVGFSMDRSRNQVSLTLTSVTAEDTAVYYCVRDIMREYDDINGAGGYYRGVDVWGRGTMVTVSS
VL: NFMLTQPPSVSESPGKTVTISCTRNSGSIASNSVYWYRQRPGSPPTTLIHDNNRRPTGVPDRFSASIDTSSNSASLTISSLKTEDEADYYCQSYDNGNHVIFGGGTNLLVL

The target of the first assay is T1, HIV-1 NL4-3 Env on infected cells (HIV-1 group M subtype B, NL4-3 (pNL4-3 …, strain)).
Test: not given
For the molecule B1, the binding result is reported as “binds”. On the same count and under the same terms, under B2 stands “binds”. Same read-out and setting: the same measure for B3: “binds”; for B4: “binds”.

Consider B5, for which the binding result was “binds”. Still for that read-out and setting: under B6 stands “binds”. On the same count and under the same terms, the same measure for B7: “binds”; for B8: “binds”. Consider B9, for which the binding result is recorded as “binds”. In the case of B10, the binding result is “binds”. On to B11, for which the binding result was “binds”. In the case of B12, the binding result is listed as “binds”. Same read-out and setting: the same measure for B13: “binds”. Same read-out and setting: the same measure for B14: “binds”; for B15: “binds”.

Another assay has as its target T1, HIV-1 NL4-3 Env on infected cells. Description: flow cytometry on cells. In general terms: A flow cytometer gives signals particle by particle.
For the molecule B16, the binding result is given as “binds”.

A further assay concerns the target gp120 JR-CSF (recombinant) (HIV-1, UniProt P20871). As to the kind of experiment: ELISA. Background: In an ELISA, binding on a coated surface is turned into a signal by an enzyme label.
On to B17, for which the binding result is reported as “binds”. The same measure, in the same setting: the same measure for B18: “binds”; for B16: “binds”.
